Test results taken from publication PMC4248446.

Target: receptor for advanced glycation end products (RAGE) (human (endogenous in HPAEC)) (UniProt Q15109)
UniProt Q15109, sequence (Q15109 23-404): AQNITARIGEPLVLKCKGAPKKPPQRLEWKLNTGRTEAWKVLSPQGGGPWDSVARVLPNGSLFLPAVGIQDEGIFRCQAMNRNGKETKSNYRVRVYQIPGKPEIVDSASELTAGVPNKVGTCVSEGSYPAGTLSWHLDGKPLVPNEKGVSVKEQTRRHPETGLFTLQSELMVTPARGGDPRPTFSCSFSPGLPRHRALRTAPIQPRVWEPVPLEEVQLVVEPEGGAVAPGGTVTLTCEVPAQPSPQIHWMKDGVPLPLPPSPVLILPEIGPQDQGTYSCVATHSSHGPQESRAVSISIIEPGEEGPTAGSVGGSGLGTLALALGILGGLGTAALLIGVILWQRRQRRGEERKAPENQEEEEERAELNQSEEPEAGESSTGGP

With “recombinant high mobility group box-1 (HMGB1) (from UniProt P09429 1-215) (ligand)” the ET-1 release from HPAECs induced by HMGB1 (40 ng/ml), ELISA of the culture supernatant, with anti-RAGE antibody (ab3611; Abcam; 1 μg/ml) co-treated was 349 pg/mL.
